This assay deals with MtrD multidrug efflux pump from N. gonorrhoeae strain CR.103 (MtrD_(CR103)) (Neisseria gonorrhoeae) (UniProt Q51073). The assay can be described thus: cryo-EM structure; single-particle cryo-EM of purified MtrD_(CR103) in lipid nanodiscs (MSP 1E3D1), 2 uM, 20 mM Tris-HCl pH 7.5, 100 mM NaCl; one structure with fortuitously bound hydrolyzed ampicillin, one after incubation with 10 uM erythromycin for 2 h; C1 symmetry.

A word on the stoichiometry N: it is the number of molecules, sites or subunits per partner or assembly. For “MtrD multidrug efflux pump from N. gonorrhoeae strain CR.103 (MtrD_(CR103)) (from UniProt Q51073 1-1067) (natural protein)”, the stoichiometry N was determined as 3.

The values above are taken from article PMC7251214.
